Results published in US20210188980A1 (SHANGHAI EPIMAB BIOTHERAPEUTICS, published 2021).
Positions count from the first letter of the chain named.

T1: human LAG-3 expressed on cells (human, UniProt P18627 23-525)
T1 sequence (looked up): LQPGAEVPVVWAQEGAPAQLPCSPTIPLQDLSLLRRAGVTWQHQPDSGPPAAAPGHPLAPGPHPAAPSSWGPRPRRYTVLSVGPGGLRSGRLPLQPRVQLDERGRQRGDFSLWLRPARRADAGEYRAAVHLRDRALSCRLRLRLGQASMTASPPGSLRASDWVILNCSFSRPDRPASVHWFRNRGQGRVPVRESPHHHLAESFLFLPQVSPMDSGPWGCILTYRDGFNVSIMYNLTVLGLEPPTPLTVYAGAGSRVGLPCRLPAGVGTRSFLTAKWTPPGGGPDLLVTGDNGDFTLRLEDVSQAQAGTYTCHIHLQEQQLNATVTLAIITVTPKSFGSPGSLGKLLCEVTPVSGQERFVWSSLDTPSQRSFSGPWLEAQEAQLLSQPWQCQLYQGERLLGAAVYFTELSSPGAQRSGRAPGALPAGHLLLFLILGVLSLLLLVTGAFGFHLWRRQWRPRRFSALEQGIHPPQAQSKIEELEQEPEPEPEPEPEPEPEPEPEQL

T2: recombinant human LAG-3-his protein (Novoprotein) (human, UniProt P18627 23-450)
T2 construct: Bought; also called huLAG-3; not shown: His tag
T2 sequence (looked up): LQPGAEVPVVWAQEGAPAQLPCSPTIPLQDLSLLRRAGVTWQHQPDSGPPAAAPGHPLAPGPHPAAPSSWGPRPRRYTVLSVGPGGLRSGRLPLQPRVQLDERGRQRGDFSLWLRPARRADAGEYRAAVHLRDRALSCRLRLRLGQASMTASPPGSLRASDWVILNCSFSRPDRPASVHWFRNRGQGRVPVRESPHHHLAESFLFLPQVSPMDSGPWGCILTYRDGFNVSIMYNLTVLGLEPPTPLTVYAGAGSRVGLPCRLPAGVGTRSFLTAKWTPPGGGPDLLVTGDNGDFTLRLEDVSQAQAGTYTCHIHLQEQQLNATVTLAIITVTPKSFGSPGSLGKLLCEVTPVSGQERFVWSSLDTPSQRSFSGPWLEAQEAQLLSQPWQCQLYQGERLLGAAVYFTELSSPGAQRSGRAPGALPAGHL

B1: mAb749 (antibody, V domains shown)
VH: EVQLQQSGAELVRPGASVKVSCTASDFNIKDDYVHWVKQRPEQGLEWIGWIDPENGDTEYASKFQGKATITADTSSNTAYLQLSSLTSEDTAVYFCSTWDAEENYWGQGTTLSVSS
VL: DIVLTQAAPSVPVTPGESVSISCRSSKSLLHSNGNTYLYWFLQRPGQSPQVLIYRMSNLASGVPVRFSGSGSGTAFTLRISRVEAEDVGVYYCMQHLEYPFTFGSGTKLEIK
notes: murine hybridoma anti-LAG-3 mAb
B2: mAb746 (antibody, V domains shown)
VH: EVQLQQSGAELVRPGASVKLSCTASDFNIKDDYMHWVKQRPEQGLDWIGWIVPENGNTEYASKFQGKATITADTSSNTAYLQLSSLTSEDTAVYYCTVYGDYWGQGTTLTVSS
VL: DIQMTQSPSSLSASLGERVSLNCRASQEISGYLSWLQQKSDGTIKRLIYAASTLDSGVPKRFSGSRSGSDYSLTISSLESEDFADYYCLQYASYPLTFGAGTKLELK
notes: murine hybridoma anti-LAG-3 mAb; also called rnAb746; 3502-mAb746
B3: mAb747 (antibody, V domains shown)
VH: B2 VH
VL: B2 VL with S40P, D85A
notes: murine hybridoma anti-LAG-3 mAb; also called 3502-mAb747
B4: mAb750 (antibody, V domains shown)
VH: EVQLQQSGAELVRPGASVKLSCTPSGLNIKDDYIHWVKQRPEQGLEWIGWIDPENGDTEYASKFQGKATITADTSSNTAYLQLSSLTSEDSAVYYCCTADYRNWYWGQGTTLTVSS
VL: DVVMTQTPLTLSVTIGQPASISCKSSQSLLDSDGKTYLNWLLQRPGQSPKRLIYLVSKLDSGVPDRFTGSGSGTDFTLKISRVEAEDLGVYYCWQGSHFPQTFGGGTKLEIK
notes: as for B1
B5: HumAb747-39 (antibody, human IgG1, V domains shown)
VH: EVQLVQSGAEVKKPGASVKVSCKASDFNIKDDYMHWVRQAPGQGLEWIGWIVPENGNTEYASKFQGRVTITADTSINTAYMELSRLRSDDTAVYYCTVYGDYWGQGTTVTVSS
VL: DIQMTQSPSSLSASVGDRVTINCRASQEISGYLSWLQQKPEGTIKRLIYAASTLDSGVPSRFSGSRSGSDYTLTISSLQPEDFATYYCLQYASYPLTFGGGTKVEIK
notes: humanized mAb747; human IgG1 and human kappa constant domains
B6: HumAb747-42 (antibody, human IgG1, V domains shown)
VH: B5 VH with R67K, V68A
VL: B5 VL
notes: as for B5

biological target: T3, human LAG-3 ECD/Fc fusion protein (human); experiment: ELISA, coated huLAG-3 ECD/Fc
T3 construct: also called HuLAG-3 ECD/Fc
Experimental: The supernatants of hybridoma clones were primarily screened by ELISA. Briefly, 50 μl/well of […] human LAG-3 ECD/Fc in NaHCO₃ were directly coated in each well of 96-well plate overnight. Plates were washed 3 times with 1×PBST, 300 μl per well. After blocking with 1% BSA in PBST at 250 μl per well and incubating at room temperature for 1 hour, the hybridoma supernatants were added at 50 μl per well and incubated at 37° C. for 1 hour. After washing, an HRP-linked goat anti-mouse IgG Fc secondary antibody (Cat. No. A0168, Sigma) was added at 100 μl/well and the plates were incubated at room temperature for 1 hour. TMB reagent (InnoReagents) was used to detect and develop the ELISA signal at 100 μl/well for 15 minutes, the reaction was stopped with 1 Normal HCL. The plates were read with a plate reader (SpectraMax® M5e, Molecular Devices, USA) at a wavelength of 450 nm. The ELISA-positive antibody producer clones were further verified by FACS analysis using methods similar to Example 1.4, above, except that stable HEK 293F cell lines expressing either human LAG-3 or cynomolgus LAG-3 were used. Hybridomas producing LAG-3 binding activity were selected and further characterized in a receptor blocking assay (RBA).
A binding ELISA was performed in the same way as described in Example 7.2 above. Each purified antibody was 10-fold serially diluted. After blocking of a 96-well assay plate with wells containing immobilized LAG-3 ECD/Fc fusion protein targets, the purified antibody samples with diluted concentrations were added to wells of the assay plate. The HRP-linked anti-mouse IgG antibody (A0168, Sigma) and TMB reagent were used to detect and develop the ELISA signal, which were read on a SpectraMax M5e plate reader at wavelength of 450 nm. Curves were fitted using GraphPad software, and EC50 values were calculated. Similarly, a RBA was also performed as described in Example 7.3 with titrated, purified antibodies, and maximum inhibition percentages and IC50 values were determined.

| Binder | EC50 |
| --- | --- |
| B1 | 0.55 nM |
| B2 | 0.31 nM |
| B3 | 0.25 nM |
| B4 | 0.25 nM |

biological target: T3, human LAG-3 ECD/Fc fusion protein; experiment: FACS RBA, huLAG-3 ECD/Fc on Raji; competitor MHC Class II
Experimental: Supernatants displaying LAG-3 specific activity were tested for the ability to block LAG-3 receptor binding to MHC Class II. Raji human B cell lymphoblasts express high levels of MCH Class II and were used as binding targets for LAG-3 ECD/Fc proteins described above. Briefly, Raji cells were harvested and resuspend in FACS buffer and plated in 96-well plates (2×10⁵ cells/well). Anti-LAG-3 hybridoma supernatants were mixed with soluble LAG-3 ECD/Fc and the mixture was added to wells at a final volume of 100 μl/well. After adding the mixture to cells, the plates were incubated at room temperature for 30 minutes. After washing twice with PBS, the cells were incubated with anti-human IgG Alexa Fluor® 488 secondary antibody at 4° C. for 1 hour, washed twice with PBS, then fluorescence was measured on a flow cytometer.
Purified anti-LAG-3 antibodies also were tested in a RBA in the same manner as described in Example 7.3. Antibodies were also tested in an antigen-specific T cell activation assay, as follows: A huLAG-3 expressing murine T hybridoma cell line was generated to order by ChemPartner (Shanghai, CN). Mouse splenocytes from the same strain of mice were used as effector cells. The hybridoma expressing the huLAG-3 receptor protein is capable of binding to MHC Class II-positive mouse splenocytes, with inhibitory effect via engagement of Class II. The assay tests for anti-LAG-3 antibody-mediated reversal of the inhibitory effect, as measured by increased production of IL-2. Mouse spleenocytes were harvested from 6-8 week-old female C57BL/6 mice, red blood cells were lysed using Red Blood Cell Lysis Buffer (Sigma-Aldrich; R7757) according to the maker's instructions. Next, 50 μl T hybridoma-huLAG-3 cells (2×10⁶ cells/ml) were seeded in each well of a 96-well culture plate, and then a series of anti-LAG-3 monoclonal antibodies in solution at 50 μl/well were added and incubated at 37° C. for 30 min. Mouse splenocytes (4×10⁶ cells/ml) and the antigen (20 μg/ml) were mixed and incubated at 37° C. for 30 min. The mixture (100 μl/well) was added into each well that was already seeded with T hybridoma-huLAG-3 cells and anti-LAG-3 mAbs. The mixture of antibodies, T hybridoma-huLAG-3 cells, mouse splenocytes, and the antigen was cultured for 3 days.

| Binder | IC50 | Max. Inhib. (%) |
| --- | --- | --- |
| B1 | 4.73 nM | 93.9% |
| B2 | 2.92 nM | 96.2% |
| B3 | 2.84 nM | 96.3% |
| B4 | 7.15 nM | 96.6% |

biological target: T4, cynomolgus LAG-3 expressed on HEK 293F cells (cynomolgus); experiment: FACS, HEK 293F cynoLAG-3 cells
T4 construct: whole, on cells
Experimental: (§1) FAGS analysis was performed using methods similar to Example 1.4, above, except that stable HEK 293F cell lines expressing either human LAG-3 cynomolgus LAG-3 were used. LAG-3 expressing cells were charged at 2×10⁴ cell per well into 96-well assay round-bottomed assay plates (Cat. No. 3799; Corning) and stained with purified anti-LAG-3 antibodies. LAG-3 antibodies were detected with AlexaFluor® Donkey anti-Mouse Ig (H+L) Highly Cross-Adsorbed Secondary Antibody (Cat. No. A21202; Invitrogen), and cell fluorescence was monitored using a flow cytometer. The data were processed by GraphPad software, and EC50 values were calculated.

| Binder | EC50 | Max-MFI |
| --- | --- | --- |
| B1 | 14.3 nM | 67.4 MFI |
| B2 | 4.1 nM | 66.2 MFI |
| B3 | 3.1 nM | 65.2 MFI |
| B4 | 114 nM | 36.7 MFI |

biological target: LAG-3 antigen (Biacore analyte of Example 7.7); experiment: SPR Biacore T200, mAb captured, LAG-3 antigen analyte
Experimental: For antibodies with high binding affinity in ELISA and FACS assays, as well as potent functional activity, binding affinities were determined based on measurement of binding kinetic constants in real time binding reactions using Biacore surface plasmon resonance. Briefly, the binding assay of antibody to antigen was performed using a Biacore T200 system through an antibody capture approach. Anti-mouse IgG Fc antibody was immobilized on a CM5 sensor chip according to the manufacturer's instructions. The test anti-LAG-3 murine monoclonal antibody was injected and captured by the immobilized anti-mouse IgG Fc. Then serial concentrations of LAG-3 antigen were individually injected, and the binding profile was recorded for each concentration of antigen analyte. The assay temperature was 25° C., and the association and dissociation times were 180 and 1200 seconds, respectively. The Biacore data were fitted using Biacore T200 evaluation software 1.0 according to a 1:1 binding model to calculate the association (kₒₙ) and dissociation (koff) rate constants and from these calculations the equilibrium dissociation constant (KD) was determined.

| Binder | Kd |
| --- | --- |
| B1 | 189 nM |
| B2 | 37.7 nM |
| B3 | 52 nM |
| B4 | 75.1 nM |

biological target: T1, human LAG-3 expressed on cells; experiment: cell-based or functional assay

| Binder | Max IL-2 | Antigen-dependent Activation, Mouse IL-2, EC50 |
| --- | --- | --- |
| B1 | 513 pg/mL | – |
| B2 | 654 pg/mL | 1.28 nM |
| B3 | 729 pg/mL | 1.27 nM |
| B4 | 552 pg/mL | – |

biological target: T2, recombinant human LAG-3-his protein …; experiment: BLI Octet, Ab on AHC sensor, huLAG-3-his analyte
Experimental: (§2) All 9 humanized antibodies (Table 25) and a chimeric antibody having the parental murine VH and VL domains (mAb747c) were ranked by dissociation rate constant (koff). Briefly, antibodies were characterized for affinities and binding kinetics by Octet RED96 biolayer interferometry (Pall FortéBio LLC). Antibodies were captured by Anti-HIgG Fc Capture (AHC) Biosensors (Pall) at a concentration of 100 nM for 30 seconds. Sensors were then dipped into running buffer (1× pH7.2 PBS, 0.05% Tween 20, 0.1% BSA) for 60 seconds to check baseline. Binding was measured by dipping sensors into a single concentration of recombinant human LAG-3-his protein (Novoprotein). Dissociation was followed by dipping sensors into running buffer for 1200 seconds. The association and dissociation curves were fitted to a 1:1 Langmuir binding model using FortéBio Data Analysis software (Pall).

| Binder | koff | off-rate constant, fold of the chimeric control mAb747c |
| --- | --- | --- |
| B5 | 0.00114 s⁻¹ | – |
| B6 | 0.00083 s⁻¹ | 2.2 fold |

biological target: T2, recombinant human LAG-3-his protein …; experiment: BLI Octet, Ab on AHC sensor, huLAG-3-his; test group 2
Experimental: as §2
The seven Fab clones were converted to full IgG proteins. Briefly, the VH and VL genes were produced synthetically and then cloned into vectors containing coding sequences for the human IgG1 and human kappa constant domains, respectively. The heavy chain and cognate light chain plasmids were co-transfected into HEK 293E cells, individually. After approximately six days of post-transfection cell culture, the supernatants were harvested and subjected to Protein A affinity chromatography. The affinity of purified antibodies was ranked by Octet® RED96 biolayer interferometry (see, Example 9.1, supra).

| Binder | koff | off-rate ratio to that of mAb747c |
| --- | --- | --- |
| B5 | 0.00391 s⁻¹ | 240% |
| B6 | 0.00428 s⁻¹ | 263% |

biological target: T1, human LAG-3 expressed on cells; experiment: FACS, HEK 293F huLAG-3 cells
Experimental: as §1

| Binder | EC50 | Max-MFI |
| --- | --- | --- |
| B1 | 3.3 nM | 124 MFI |
| B2 | 13 nM | 121 MFI |
| B3 | 1.1 nM | 104 MFI |
| B4 | 24.1 nM | 88.7 MFI |
